T1: human FcγRIIA 131H on blood cells of 131H/H donors (human, UniProt P12318 34-317)
T1 sequence (looked up): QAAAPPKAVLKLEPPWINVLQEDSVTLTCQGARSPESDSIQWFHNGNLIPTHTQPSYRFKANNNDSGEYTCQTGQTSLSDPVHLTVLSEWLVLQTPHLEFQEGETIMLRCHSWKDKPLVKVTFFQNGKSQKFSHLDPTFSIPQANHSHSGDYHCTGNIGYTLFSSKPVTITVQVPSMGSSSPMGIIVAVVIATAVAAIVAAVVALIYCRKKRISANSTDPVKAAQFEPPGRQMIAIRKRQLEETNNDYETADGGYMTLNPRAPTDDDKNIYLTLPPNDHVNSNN

T2: human FcγRIIA 131R on blood cells of 131R/R donors (human, UniProt P12318 34-317)
T2 sequence: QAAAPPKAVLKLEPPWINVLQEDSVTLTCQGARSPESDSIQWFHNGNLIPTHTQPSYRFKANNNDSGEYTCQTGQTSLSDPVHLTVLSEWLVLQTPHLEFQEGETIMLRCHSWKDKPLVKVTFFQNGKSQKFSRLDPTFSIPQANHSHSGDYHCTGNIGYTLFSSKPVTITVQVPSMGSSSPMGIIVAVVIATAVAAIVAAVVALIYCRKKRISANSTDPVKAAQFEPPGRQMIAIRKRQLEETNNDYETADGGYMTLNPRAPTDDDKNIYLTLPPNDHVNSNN

T3: recombinant FcγRIIB (ELISA coat, generated at MedImmune) (UniProt P31994 43-217, limits assumed)
T3 construct: also called CD32B
T3 sequence (looked up): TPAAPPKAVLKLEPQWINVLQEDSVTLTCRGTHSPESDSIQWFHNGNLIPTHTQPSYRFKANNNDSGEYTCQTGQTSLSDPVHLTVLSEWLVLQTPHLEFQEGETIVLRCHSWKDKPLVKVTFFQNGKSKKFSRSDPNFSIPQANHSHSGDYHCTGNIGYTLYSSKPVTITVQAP

T4: recombinant FcγRIIA-131H/H allotype (ELISA coat, generated at MedImmune) (human, UniProt P12318 34-217, limits assumed)
T4 construct: also called human FcγRIIA; CD32A
T4 sequence (looked up): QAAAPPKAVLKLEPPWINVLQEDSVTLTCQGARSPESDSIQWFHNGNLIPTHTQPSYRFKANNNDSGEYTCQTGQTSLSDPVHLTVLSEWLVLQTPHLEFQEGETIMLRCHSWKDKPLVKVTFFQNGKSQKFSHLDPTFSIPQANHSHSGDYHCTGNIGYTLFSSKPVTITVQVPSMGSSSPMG

T5: Human CD32A 131R extracellular domain, 6xHis_Flag tagged (human, UniProt P12318 34-217)
T5 construct: also called Hu CD32A_131Arg; human CD32A_131 Arg
T5 chain: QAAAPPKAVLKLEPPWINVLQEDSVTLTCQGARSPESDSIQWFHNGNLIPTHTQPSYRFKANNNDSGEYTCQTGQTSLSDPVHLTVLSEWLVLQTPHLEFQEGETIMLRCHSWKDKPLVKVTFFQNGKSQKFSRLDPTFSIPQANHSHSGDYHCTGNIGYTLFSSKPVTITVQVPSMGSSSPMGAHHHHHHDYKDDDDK


Experiments:
[1] = biological target: T1, human FcγRIIA 131H on blood cells of …; assay: cell-based or functional assay
[2] = biological target: T2, human FcγRIIA 131R on blood cells of …; assay: cell-based or functional assay
[3] = biological target: cynomolgus monkey FcγRIIA on blood cells (cynomolgus monkey); assay: cell-based or functional assay
[4] = biological target: T6, recombinant human FcγRI (ELISA coat, generated at MedImmune) (human, UniProt P12314 16-292, limits assumed); assay: ELISA on plate-coated FcγRI (2 µg/ml), detection with goat anti-human Fc-HRP
T6 construct: also called CD64
Protocol: (§1) Plates were washed five times with 200 μl of wash buffer (PBS containing 0.1% Tween 20), blocked with blocking buffer containing 5% milk in PBS for 1 hour at room temperature, and washed five additional times with wash buffer. Three-fold serial dilutions of the test antibody or control antibody (R347-Tm) were added to wells in duplicate. Plates were incubated for 2 hours at room temperature, and washed five times with wash buffer. Binding of the antibodies to the FcγRs was detected by adding 50 μl of goat anti-human Fc-HRP (Jackson ImmunoResearch Laboratories, PA) to the wells and incubating for 1 hour at room temperature, washing 10 times, and adding 50 μl TMB substrate (Pierce Biotechnology, MA). The color reaction was stopped with 50 μl 0.2M […] and the absorbance was measured using a spectrophotometer (Molecular Devices, CA) at […].

[5] = biological target: T3, recombinant FcγRIIB (ELISA coat, …); assay: ELISA on plate-coated FcγRIIB (2 µg/ml), detection with goat anti-human Fc-HRP
Protocol: as §1

[6] = biological target: T7, recombinant human FcγRIIIA-158F allotype (ELISA coat, generated at MedImmune) (human, UniProt P08637 17-208, limits assumed); assay: ELISA on plate-coated FcγRIIIA-158F (2 µg/ml), detection with goat anti-human Fc-HRP
T7 construct: also called FcγRIII-158F allotype; CD16A 158F
Protocol: as §1

[7] = biological target: T8, recombinant human FcγRIIIA-158V allotype (ELISA coat, generated at MedImmune) (human, UniProt P08637 17-208, limits assumed); assay: ELISA on plate-coated FcγRIIIA-158V (2 µg/ml), detection with goat anti-human Fc-HRP
T8 construct: also called FcγRIII-158V allotype; CD16A 158V
Protocol: as §1

[8] = biological target: T4, recombinant FcγRIIA-131H/H allotype …; assay: ELISA on plate-coated FcγRIIA-131H/H (2 µg/ml), detection with goat anti-human Fc-HRP
Protocol: as §1

[9] = biological target: T5, Human CD32A 131R extracellular domain, …; assay: HTRF epitope competition: sample IgG titrated against binding of mouse IV.3 IgG to human CD32a 131R

T8 sequence (P08637 17-208 F176V limits assumed): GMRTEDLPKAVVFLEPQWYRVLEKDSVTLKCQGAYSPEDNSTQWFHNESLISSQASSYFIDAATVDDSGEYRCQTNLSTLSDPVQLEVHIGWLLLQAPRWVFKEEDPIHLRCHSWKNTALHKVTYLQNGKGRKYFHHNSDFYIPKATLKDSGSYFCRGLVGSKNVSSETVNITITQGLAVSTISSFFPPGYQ
T6 sequence (P12314 16-292 limits assumed): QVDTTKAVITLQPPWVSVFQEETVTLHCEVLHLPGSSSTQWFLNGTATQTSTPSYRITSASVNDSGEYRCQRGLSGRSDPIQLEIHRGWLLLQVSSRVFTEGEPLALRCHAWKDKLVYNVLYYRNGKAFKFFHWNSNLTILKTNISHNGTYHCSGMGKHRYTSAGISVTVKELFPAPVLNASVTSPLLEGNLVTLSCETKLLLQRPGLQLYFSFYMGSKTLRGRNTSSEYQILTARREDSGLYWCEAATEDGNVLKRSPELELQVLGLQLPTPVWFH
T7 sequence (P08637 17-208 limits assumed): as the sequence (P08637 17-208 F176V limits assumed) above, with V160F counted along it

| Binder | IC50 of the loss of surface FcγRIIA (M.F.I of IV.3-Alexa 647) on monocytes, whole blood, 2 h at 37 °C [1] [nM] | IC50 of the loss of surface FcγRIIA (M.F.I of IV.3-Alexa 647) on monocytes, whole blood, 2 h at 37 °C [2] [nM] | IC50 of the loss of surface FcγRIIA (M.F.I of IV.3-Alexa 647) on cynomolgus monocytes, whole blood, 2 h at 37 °C [3] [nM] | binding result [4] | binding result [5] | binding result [6] | binding result [7] | EC50 (read off the curve) [8] [ng/mL] | binding result [9] |
| --- | --- | --- | --- | --- | --- | --- | --- | --- | --- |
| 32LO0350 (antibody, human IgG1, V domains shown, also called optimized IV.3 clone 32LO0350) VH: QVQLVQSGAEVKKPGASVKVSCKASGYTFTNYGMNWVRQAPGQRLEWMGWLNTYTGESWYPDDFKGRVTITRDTSASTAYMELSSLRSEDTAVYYCARGDYGYDDPLDYWGQGTLVTVSS VL: DIVMTQSPLSLPVTPGEPASISCRSSKSLLHTNRNTYLHWFLQKPGQSPQLLIYRMSVLASGVPDRFSGSGSGTDFTLKISRVEAEDVGVYYCMQHLEYPLTFGQGTKLEIK | 0.0692 | 0.0537 | 1.2 | no binding (tested: about 15000 ng/ml) | no binding (tested: about 15000 ng/ml) | no binding (tested: about 15000 ng/ml) | no binding (tested: about 15000 ng/ml) | ~5 | binds |
| 32LO0351 (antibody, V domains shown) VH: QVQLVQSGAEVKKPGASVKVSCKASGYTFTNYGMNWVRQAPGQRLEWMGWLNTYTGESYYPDDFKGRVTITRDTSASTAYMELSSLRSEDTAVYYCARGDYGYDDPLDYWGQGTLVTVSS VL: DIVMTQSPLSLPVTPGEPASISCRSSKSLLHTYGNTYLHWFLQKPGQSPQLLIYRMSVLASGVPDRFSGSGSGTDFTLKISRVEAEDVGVYYCMQHLEYPLTFGQGTKLEIK | 0.0524 | 0.0559 | 16.4 |  |  |  |  |  |  |
| 32LO0354 (antibody, human IgG1, V domains shown, also called optimized IV.3 clone 32LO0354) VH: QVQLVQSGAEVKKPGASVKVSCKASGYTFTNYGMNWVRQAPGQRLEWMGWLNTYTGESYYPDDFKGRVTITRDTSASTAYMELSSLRSEDTAVYYCARGDYGYDDPLDYWGQGTLVTVSS VL: DIVMTQSPLSLPVTPGEPASISCRSSKSLLHTNRNTYLHWFLQKPGQSPQLLIYRMSVLASGVPDRFSGSGSGTDFTLKISRVEAEDVGVYYCMQHLEYPLTFGQGTKLEIK | 0.0417 | 0.039 | 5.14 | no binding (tested: about 15000 ng/ml) | no binding (tested: about 15000 ng/ml) | no binding (tested: about 15000 ng/ml) | no binding (tested: about 15000 ng/ml) | ~5 | binds |

Further lines, results first:

| IC50 of the loss of surface FcγRIIA (M.F.I of IV.3-Alexa 647) on monocytes, whole blood, 2 h at 37 °C [1] [nM] | IC50 of the loss of surface FcγRIIA (M.F.I of IV.3-Alexa 647) on monocytes, whole blood, 2 h at 37 °C [2] [nM] | IC50 of the loss of surface FcγRIIA (M.F.I of IV.3-Alexa 647) on cynomolgus monocytes, whole blood, 2 h at 37 °C [3] [nM] | binding result [4] | binding result [5] | binding result [6] | binding result [7] | EC50 (read off the curve) [8] [ng/mL] | binding result [9] | Binder |
| --- | --- | --- | --- | --- | --- | --- | --- | --- | --- |
| 0.241 | 0.307 | 10.5 |  |  |  |  |  |  | CamIV3 (antibody, V domains shown) VH: QVQLVQSGAEVKKPGASVKVSCKASGYTFTNYGMNWVRQAPGQRLEWMGWLNTYTGESIYPDDFKGRVTITRDTSASTAYMELSSLRSEDTAVYYCARGDYGYDDPLDYWGQGTLVTVSS VL: DIVMTQSPLSLPVTPGEPASISCRSSKSLLHTLGNTYLHWFLQKPGQSPQLLIYRMSVLASGVPDRFSGSGSGTDFTLKISRVEAEDVGVYYCMQHLEYPLTFGQGTKLEIK |
| 0.044 | 0.0431 | 3.78 |  |  |  |  |  |  | 32LO0356 (antibody, V domains shown) VH: QVQLVQSGAEVKKPGASVKVSCKASGYTFTNYGMNWVRQAPGQRLEWMGWLNTYTGESYYPDDFKGRVTITRDTSASTAYMELSSLRSEDTAVYYCARGDYGYDDPLDYWGQGTLVTVSS VL: DIVMTQSPLSLPVTPGEPASISCRSSKSLLHTNFNTYLHWFLQKPGQSPQLLIYRMSVLASGVPDRFSGSGSGTDFTLKISRVEAEDVGVYYCMQHLEYPLTFGQGTKLEIK |
| 0.0915 | 0.0644 | 1.01 | no binding (tested: about 15000 ng/ml) | no binding (tested: about 15000 ng/ml) | no binding (tested: about 15000 ng/ml) | no binding (tested: about 15000 ng/ml) | ~5 | binds | 32LO0355 (antibody, human IgG1, V domains shown, also called optimized IV.3 clone 32LO0355) VH: QVQLVQSGAEVKKPGASVKVSCKASGYTFTNYGMNWVRQAPGQRLEWMGWLNTYTGESWYPDDFKGRVTITRDTSASTAYMELSSLRSEDTAVYYCARGDYGYDDPLDYWGQGTLVTVSS VL: DIVMTQSPLSLPVTPGEPASISCRSSKSLLHTNKNTYLHWFLQKPGQSPQLLIYRMSVLASGVPDRFSGSGSGTDFTLKISRVEAEDVGVYYCMQHLEYPLTFGQGTKLEIK |

From patent publication US20260125478A1 (VIELA BIO, published 2026)
